From patent US20190247357A1, “NANOPARTICLE FORMULATIONS AND METHODS OF MAKING AND USING THEREOF” (Abraxis BioScience, LLC, priority 2016, published 2019)

Key:
ErbB2 [1] = target: ErbB2 (UniProt P04626); test: Phospho(Tyr1248)/Total ErbB2 binding assay, MSD whole cell lysate kit, BT-474 cells treated 2 h
ErbB2 [2] = target: ErbB2 (UniProt P04626); test: Phospho(Tyr1248)/Total ErbB2 binding assay, MSD whole cell lysate kit, SK-BR-3 cells treated 2 h
[3] = test system: A375 human melanoma cells; test: A375 melanoma xenograft model: tumor volume change and survival; settings: mice with tumors larger than 2000 mm^3 euthanized
Procedure: A375 human melanoma cells were subcutaneously injected into mice to generate xenograft models. The tumors were allowed to grow to about 600 mm^3 before treatment according to the following protocols. Nine mice were treated for each protocol, except as noted.
Cohort 1—Vehicle control (“Vehicle”). […] The vehicle control was administered to each mouse at a dosage of 120 μL/mouse on the second day of the experiment.
Cohort 4—BEV12 and ABX30 on same day (“BEV12+ABX30—Same Day”).
P-values were determined using an un-paired t-test.
Survival time of the treated mice was also recoded. Mice with tumors larger than 2000 mm^3 were euthanized.

| Substance | IC50 (ErbB2 [1]) [nM] | IC50 (ErbB2 [2]) [nM] | Median Survival [3] [days] |
| --- | --- | --- | --- |
| Nanoparticles with embedded trastuzumab, paclitaxel and albumin (Example 12, Batch 2, paclitaxel:trastuzumab 5.9:1) (from UniProt P02768 25-609) | 0.349 | 0.361 | – |
| Nanoparticles with embedded trastuzumab, paclitaxel and albumin, with free mAb (Example 20, paclitaxel:trastuzumab 10:1) (from UniProt P02768 25-609) | 0.524 | 0.409 | – |
| bevacizumab: antiangiogenic antibody that targets vascular endothelial growth factor A (VEGF-A) | – | – | 38 |
| SM(PEG)6 conjugate of trastuzumab and isolated nab-paclitaxel particles (Example 23, paclitaxel:trastuzumab 92.5:1) (from UniProt P02768 25-609) | 0.291 | 0.557 | – |
| Click conjugate of trastuzumab and nab-paclitaxel particles (Example 26, paclitaxel:trastuzumab 51:1) (from UniProt P02768 25-609) | 0.702 | 0.59 | – |
| Thiolated conjugate of trastuzumab and nab-paclitaxel particles (Example 33, paclitaxel:trastuzumab 12:1) (from UniProt P02768 25-609) | 0.216 | 0.977 | – |
| Nanoparticles with embedded trastuzumab, paclitaxel and albumin (Example 12, Batch 3, paclitaxel:trastuzumab 6.7:1) (from UniProt P02768 25-609) | 0.456 | 0.37 | – |

The remaining substances from weak to strong by IC50 (ErbB2 [2]), led by results:

| IC50 (ErbB2 [1]) [nM] | IC50 (ErbB2 [2]) [nM] | Substance | Median Survival [3] [days] |
| --- | --- | --- | --- |
| 0.35 | 0.357 | Nanoparticles with embedded trastuzumab, paclitaxel and albumin (Example 12, Batch 1, paclitaxel:trastuzumab 5.6:1) (from UniProt P02768 25-609) | – |
| – | 0.311 | Thiolated conjugate of trastuzumab and nab-paclitaxel particles (Example 34, paclitaxel:trastuzumab 31:1) (from UniProt P02768 25-609) | – |
| 0.441 | 0.301 | SM(PEG)6 conjugate of trastuzumab and nab-paclitaxel particles with free mAb (Example 35, paclitaxel:trastuzumab 10:1) (from UniProt P02768 25-609) | – |
| 0.429 | 0.289 | Nanoparticles with embedded trastuzumab, paclitaxel and albumin (Example 12, Batch 4, paclitaxel:trastuzumab 4.5:1) (from UniProt P02768 25-609) | – |
